The record followed here is patent US20250388696A1 (NAVIGO PROTEINS, published 2025).

Where a chain is given by its changes, count along the chain named. Where no end group is shown, it is not given here.

The target of assay [1] is T1, Her2-Fc (human, UniProt P04626 23-652).
T1 construct: Coated in ELISA
In words: ELISA on coated Her2-Fc; 0 h in mouse serum. On the procedure:
(§1) High binding plates (Greiner, 781061) were immobilized with 2.5 μg/ml hFAP-Fc or 1.2 μg/ml Her2-Fc over night at 4° C. Dilution series of 3 μM to 0.07 pM of fusion proteins with binding specifically to Her2 were incubated in 100% human serum or 100% mouse serum for 24 h at 37° C. Dilution series of 3 µM to 0.2 pM or 1 μM to 0.01 fM of fusion proteins with binding specifically to hFAP were incubated in 100% human serum or 100% mouse serum for 24 h at 37° C. ELISA-plates were washed three times with PBST (PBS+0.1% Tween) and blocked with 3% BSA/0.5% Tween/PBS up to 2 h at room temperature (rt). After preincubation for 0 h or 24 h in the presence of serum the dilution series were incubated on ELISA-plates for up to 1 h at rt. Wells were washed with PBST and incubated with biotinylated anti-ubiquitin-antibody (1:300) for up to 1 h at rt. The binding was visualized with Streptavidin-HRP (1:5.000).
(§2) The fusion proteins comprise the albumin binding domain (referred to as HED) and the targeting moiety.
Background: In an ELISA, binding on a coated surface is turned into a signal by an enzyme label.

Assay [2] addresses T1, Her2-Fc. Kind of assay: ELISA on coated Her2-Fc; 0 h in human serum. How it is done:
as §1, §2

Assay [3] concerns the target T2, Her2 expressed on Sk-Br-3 cells (human, UniProt P04626 23-1255).
T2 construct: whole, on cells; also called human epidermal growth factor receptor 2
In words: flow cytometry, dilution series on Sk-Br-3 cells. On the procedure: Her2 expressing Sk-Br-3-cells and HEK293-hFAP overexpressing cells were thawed, washed with medium containing FCS, subsequently washed with FACS blocking buffer (PBS/0.1% Sodium Azide/3% FCS) and 100 μl seeded in 96-well round bottom plates with a density of 1×10⁶ cells/ml. Dilution series from 10 µM to 8.6 fM (CID 217781, CID 217787) and a dilution series of 3 µM to 0.2 μM (CID 218466, CID 218467, 218512, CID 218513, CID 218514, CID 218515, CID 218516) were incubated on Her2-expressing Sk-Br-3-cells and dilution series from 1 μM to 0.07 μM of fusion proteins 218690 and 218702 were incubated on hFAP-overexpressing HEK293-cell line for 45 min at 4° C. After centrifugation the supernatants were removed and cells were washed with FACS blocking buffer and 100 μl/well rabbit anti-Strep-Tag antibody (GenScript; A00626), 1:300 diluted in FACS blocking buffer were added. After removal of the primary antibody goat anti-rabbit IgG Alexa Fluor 488 antibody (Invitrogen; A4008) was applied in a 1:1000 dilution in FACS blocking buffer. Flow cytometry measurement was conducted on the Guava easyCyte 5HT device from Merck-Millipore at excitation wavelength 488 nm and emission wavelength 525/30 nm. The * in table 2 refers to a fusion protein with the albumin binding domain as dimer (homo-dimer) and/or the targeting moiety as dimer.

The target of assay [4] is T1, Her2-Fc. Kind of assay: ELISA on coated Her2-Fc; 24 h in mouse serum at 37 C. On the procedure: as §1, §2
For assay [5], the target named is T1, Her2-Fc. In words: ELISA on coated Her2-Fc; 24 h in human serum at 37 C. How it is done:
as §1, §2

Assay [6] concerns the target T1, Her2-Fc. Kind of assay: ELISA on coated Her2-Fc; after 24 h in mouse serum at 37 C. On the procedure:
as §1, §2

Assay [7] deals with T1, Her2-Fc. In words: ELISA on coated Her2-Fc; after 24 h in human serum at 37 C. On the procedure: as §1, §2
The target in assay [8] is T1, Her2-Fc. Kind of assay: ELISA on coated Her2-Fc; KD 24 h against KD 0 h, mouse serum. On the procedure: as §1, §2
For assay [9], the target named is T1, Her2-Fc. Kind of assay: ELISA on coated Her2-Fc; KD 24 h against KD 0 h, human serum. How it is done:
as §1, §2

A further assay addresses T3, human serum albumin (human, UniProt P02768 25-609).
T3 construct: also called HSA
Kind of assay: SPR, HSA immobilised on the chip, pH 7.3, 1:1 Langmuir fit [continued]. How it is done: (§3) Recombinant protein A, HSA, MSA or target (either ED-B or Her2) was immobilized on a High Capacity Amine sensor chip (Bruker) after NHS/EDC activation with a Sierra SPR-32 system (Bruker). The chip was equilibrated with SPR running buffer (PBS 0.05%, Tween pH 7.3). Injection of ethanolamine after target immobilization was used to block free NHS groups. To determine the binding of fusion proteins to FAP, the Fc-tagged target was injected with 60 or 30 nM to Protein A coupled spots followed by the injection of fusion proteins.
(§4) Binding proteins were applied to the chip in serial dilutions with a flow rate of 30 μl/min. Upon binding, analyte accumulated on the surface increasing the refractive index. This change in the refractive index was measured in real time and plotted as response or resonance units versus time. The association was performed for 120 seconds and the dissociation for 180 seconds. After each run, the chip surface was regenerated with 30 μl regeneration buffer (10 mM glycine pH 2.0 or pH 1.5) and equilibrated with running buffer. Binding studies were carried out using the Sierra SPR-32 system (Bruker); data evaluation was operated via the Sierra Analyser software, provided by the manufacturer, by the use of the Langmuir 1:1 model (RI=0).
On the technique in general: Surface plasmon resonance follows binding to a sensor surface in real time, without labels.

The target of assay [10] is T4, Her2 (immobilised on the SPR chip) (human, UniProt P04626 23-652, limits assumed).
T4 construct: construct not described; also called human epidermal growth factor receptor 2
In words: SPR, Her2 immobilised on the chip, pH 7.3, 1:1 Langmuir fit [continued]. On the procedure: as §3, §4

Another assay addresses T5, mouse serum albumin (mouse, UniProt P07724 25-608).
T5 construct: also called MSA
In words: SPR, MSA immobilised. On the procedure: as §3, §4

T3 sequence (P02768 25-609 limits assumed): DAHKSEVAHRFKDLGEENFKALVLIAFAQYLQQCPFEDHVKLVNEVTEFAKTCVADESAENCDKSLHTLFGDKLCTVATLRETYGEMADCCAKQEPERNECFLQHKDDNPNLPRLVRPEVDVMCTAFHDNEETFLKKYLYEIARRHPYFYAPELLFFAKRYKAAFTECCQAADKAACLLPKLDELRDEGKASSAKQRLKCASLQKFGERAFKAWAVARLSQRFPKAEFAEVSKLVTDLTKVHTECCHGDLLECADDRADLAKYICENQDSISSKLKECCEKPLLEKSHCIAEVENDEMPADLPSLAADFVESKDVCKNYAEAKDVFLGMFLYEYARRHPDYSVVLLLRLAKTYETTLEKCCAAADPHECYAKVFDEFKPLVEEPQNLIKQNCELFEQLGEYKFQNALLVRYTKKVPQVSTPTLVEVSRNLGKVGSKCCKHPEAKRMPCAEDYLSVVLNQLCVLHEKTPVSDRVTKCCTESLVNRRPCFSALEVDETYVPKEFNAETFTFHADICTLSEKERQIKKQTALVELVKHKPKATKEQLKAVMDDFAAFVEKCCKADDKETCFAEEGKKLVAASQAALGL

B1: fusion protein 217781 (designed binder, not shown: small tags and cut ends)
chain (part 1 of 2): not shown
chain (part 2 of 2): LAEAKVLALKELDKYGISNYYKNLINNAKTIEGVKALKEAIVAA
notes: also called CID 217781
As a reminder, the Kd is the constant that tells how readily two partners part at equilibrium. Higher therefore signals weaker binding. B1: the Kd turned out to be 0.36 nM in the assay with Her2-Fc [1]; 0.61 nM in the assay with Her2-Fc [2]; 2.05 nM in assay [3]; 0.63 nM with Her2-Fc [4]; 0.79 nM in the assay with Her2-Fc [5]; 2.9 nM with human serum albumin. Also, the Kd in assay [10] was 4.1 nM. Also, the “max binding after 24 h [%]” value with Her2-Fc [6] came to 97.7%; with Her2-Fc [7], 94.1%. The “increase of KD vs target [fold]” value is 1.72 fold with Her2-Fc [8] and 1.29 fold with Her2-Fc [9].

B2: Fusion proteins with albumin binding domain of SEQ ID NO: 5 (designed binder, not shown: small tags and cut ends)
chain: B1 chain (part 2 of 2) with E39D
modifications: also: part of fusion protein, targeting moiety, linker, tag and order not given here
In the assay with mouse serum albumin, B2 registered a Kd below 10 nM.

B3: Fusion proteins with albumin binding domain of SEQ ID NO: 23 (designed binder, not shown: small tags and cut ends)
chain: B1 chain (part 2 of 2)
modifications: also: part of fusion protein, targeting moiety, linker, tag and order not given here
notes: also called c19
In the case of B3, in the assay with mouse serum albumin, the Kd was below 10 nM.

B4: Fusion proteins with albumin binding domain of SEQ ID NO: 26 (designed binder, not shown: small tags and cut ends)
chain: B1 chain (part 2 of 2) with K35E, V42L
modifications: also: part of fusion protein, targeting moiety, linker, tag and order not given here
Consider B4, for which the equilibrium dissociation constant (Kd) with mouse serum albumin was below 10 nM.

B5: Fusion proteins with albumin binding domain of SEQ ID NO: 7 (designed binder, not shown: small tags and cut ends)
chain: B1 chain (part 2 of 2) with K35E, E39D, V42L
modifications: also: part of fusion protein, targeting moiety, linker, tag and order not given here
notes: also called c24
In the case of B5, in the assay with mouse serum albumin, the Kd is below 10 nM.

B6: Fusion proteins with albumin binding domain of SEQ ID NO: 22 (designed binder, not shown: small tags and cut ends)
chain: B1 chain (part 2 of 2) with E39A, A40Q, V42L
modifications: also: part of fusion protein, targeting moiety, linker, tag and order not given here
B6 registered a dissociation constant (Kd) with mouse serum albumin below 16 nM.

B7: fusion protein 218467 (designed binder, not shown: small tags and cut ends)
chain (part 1 of 2): not shown
chain (part 2 of 2): LAEAKVLAIKELDKAGISNYYFNLINNAKTVEGVKDLKAQIVAA
notes: also called CID 218467
Regarding B7, the Kd with Her2-Fc [1] worked out at 0.17 nM; with Her2-Fc [2], 0.34 nM; in [3], 3.81 nM; with Her2-Fc [4], 0.2 nM; with Her2-Fc [5], 0.36 nM. Also, the “max binding after 24 h [%]” value with Her2-Fc [6] was 104%; in the assay with Her2-Fc [7], 99%. In addition, the results for the “increase of KD vs target [fold]” value in the assay with Her2-Fc [8] and with Her2-Fc [9] were 1.2 fold and 1.05 fold, respectively.

B8: Fusion proteins with albumin binding domain of SEQ ID NO: 24 (designed binder, not shown: small tags and cut ends)
chain: B1 chain (part 2 of 2) with K35E, E39D
modifications: also: part of fusion protein, targeting moiety, linker, tag and order not given here
In the assay with mouse serum albumin, B8 returned a Kd below 16 nM.

B9: fusion protein 218466 (designed binder, not shown: small tags and cut ends)
chain (part 1 of 2): not shown
chain (part 2 of 2): B1 chain (part 2 of 2) with E39D, A40E
notes: also called CID 218466
Take B9: the Kd in the assay with Her2-Fc [1] is 0.21 nM; with Her2-Fc [2] it was 0.34 nM; in assay [3], 2.69 nM; with Her2-Fc [4], 0.23 nM; with Her2-Fc [5], 0.32 nM; in the assay with human serum albumin, 6.3 nM. The molecule further registered a Kd in [10] of 4.4 nM. Also, the “max binding after 24 h [%]” value came to 96.6% with Her2-Fc [6] and 95.1% with Her2-Fc [7]. In addition, the “increase of KD vs target [fold]” value with Her2-Fc [8] came out at 1.14 fold; with Her2-Fc [9], 0.93 fold.

B10: Fusion proteins with albumin binding domain of SEQ ID NO: 6 (designed binder, not shown: small tags and cut ends)
chain: B1 chain (part 2 of 2) with E39D, A40E
modifications: also: part of fusion protein, targeting moiety, linker, tag and order not given here
notes: also called c20
On to B10, for which, in the assay with mouse serum albumin, the equilibrium dissociation constant (Kd) is below 10 nM.

B11: fusion protein 217787 (designed binder, not shown: small tags and cut ends)
chain (part 1 of 2): not shown
chain (part 2 of 2): LAEAKVLALKELDKYGISDFYKRLIDKAKTIEGVEALKDAILAA
notes: also called CID 217787
For B11, the Kd amounted to 0.42 nM with Her2-Fc [1]; 0.84 nM with Her2-Fc [2]; 2.17 nM in assay [3]; 0.6 nM with Her2-Fc [4]; 0.53 nM with Her2-Fc [5]; 0.6 nM with human serum albumin. This molecule showed a Kd in assay [10] of 7.3 nM. Also, the “max binding after 24 h [%]” value with Her2-Fc [6] worked out at 100%; in the assay with Her2-Fc [7] it was 96.2%. The “increase of KD vs target [fold]” value in the assay with Her2-Fc [8] is 1.43 fold; with Her2-Fc [9] it was 0.63 fold.

B12: Fusion proteins with albumin binding domain of SEQ ID NO: 25 (designed binder, not shown: small tags and cut ends)
chain: B1 chain (part 2 of 2) with K35E
modifications: also: part of fusion protein, targeting moiety, linker, tag and order not given here
With B12, the Kd with mouse serum albumin is below 16 nM.

B13: Fusion proteins with albumin binding domain of SEQ ID NO: 21 (designed binder, not shown: small tags and cut ends)
chain: B1 chain (part 2 of 2) with E39A
modifications: also: part of fusion protein, targeting moiety, linker, tag and order not given here
B13 yielded a Kd with mouse serum albumin below 16 nM.

B14: fusion protein 218512 (designed binder, not shown: small tags and cut ends)
chain (part 1 of 2): not shown
chain (part 2 of 2): B1 chain (part 2 of 2) with I31V
notes: also called CID 218512
In the case of B14, the Kd with Her2-Fc [1] stood at 0.2 nM; in the assay with Her2-Fc [2] it was 0.23 nM; in [3] it was 1.72 nM; with Her2-Fc [4], 0.24 nM; in the assay with Her2-Fc [5], 0.36 nM; in the assay with human serum albumin it was 1.8 nM. The molecule further gave a Kd in assay [10] of 2.7 nM. Further, the “max binding after 24 h [%]” value with Her2-Fc [6] came to 98.6%; in the assay with Her2-Fc [7], 100%. Besides, the entries for the “increase of KD vs target [fold]” value with Her2-Fc [8] and with Her2-Fc [9] were 1.2 fold and 1.58 fold, respectively.

B15: Fusion proteins with albumin binding domain of SEQ ID NO: 13 (designed binder, not shown: small tags and cut ends)
chain: B7 chain (part 2 of 2) with N19D, V31I, D36A
modifications: also: part of fusion protein, targeting moiety, linker, tag and order not given here
In the assay with mouse serum albumin, B15 yielded a Kd below 16 nM.
